Values quoted from earlier work in doi:10.1101/2024.02.22.581550.

Biological target: Cys145 (UniProt position 145, PILIPCHRVVC)

For “O6-alkylguanine-DNA alkyltransferase (hAGT; MGMT, methylated-DNA--protein-cysteine methyltransferase) (Homo sapiens)”, the pKa is listed as “∼5”.
